Source: patent US20100210517A1 (RAPTOR PHARMACEUTICAL, published 2010)
Where a chain is given by its changes, count along the chain named.

Experiments:
LRP2 CR89 = target: T1, LRP2 CR89 (human, UniProt P98164 1025-1102); assay: solid-phase assay on coated CR protein, single-site non-linear fit
T1 construct: domain: CR89; also called YVWR; L2 CR89; not shown: N-terminal hexahistidine and S-peptide tags of pET30(+)a
Experimental: Data were plotted and fitted by non-linear regression with the assumption of a single binding site (GraphPad Prism). Kd values with standard deviations were derived from the regression analysis.
(§1) Solid phase binding assays-Purified, refolded CR protein (1 μg) was bound to Nunc Maxisorp™ 96-well plates in TBS pH 8 supplemented with 5 mM CaCl₂ (TBSC) overnight at 4° C. Wells were washed with TBSC and then blocked with TBSC containing 2% bovine serum albumin (BSA). […] Control wells contained no added ligand. As an additional control, to determine whether the absence of calcium affected binding, 10 mM EGTA was included in the incubation medium for some samples. […] Excess primary antibody was removed and wells washed before incubation with the secondary antibody, HRP-conjugated goat anti rabbit IgG (Bio-Rad). After washing, TMB substrate solutions (Bio-Rad) were added to detect HRP. Color development was stopped with 1N HCl. Absorption at 450 nm was measured with a microplate spectrophotometer (Molecular Devices). Data were plotted and Kd values derived by non-linear regression with the assumption of single-site binding (GraphPad Prism).

LRP2 CR89 R1088D = target: T2, LRP2 CR89 R1088D (human, UniProt P98164 1022-1105); assay: solid-phase binding assay, CR protein coated on plate, anti-RAP detection
T2 construct: also called YVWD

LRP2 CR89 V1047D R1088D = target: T3, LRP2 CR89 V1047D R1088D (human, UniProt P98164 1022-1105); assay: solid-phase assay on coated CR protein, anti-RAP detection, A450
T3 construct: also called YDWD
T3 sequence: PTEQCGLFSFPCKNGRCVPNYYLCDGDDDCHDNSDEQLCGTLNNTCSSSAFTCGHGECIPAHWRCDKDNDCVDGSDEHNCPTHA
Experimental: as §1
(§2) To test this idea, mutant LRP2 CR89 were prepared in which the native, non-canonical residues at these positions were sequentially substituted with the non-native, canonical residues. As defined above, the A, C, A′, C′ string for LRP2 CR89 is YVWR. Mutants included LRP2 CR89 Y1042W (WVWR), LRP2 CR89 V1047D (YDWR), LRP2 CR89 R1088D (YVWD), LRP2 CR89 V1047D R1088D (YDWD), LRP2 CR89 Y1042W V1047D R1088D (WDWD), LRP2 CR89 Y1042W V1047D (WDWR), LRP2 CR89 Y1042W R1088D (WVWD).

LRP2 CR89 V1047D = target: T4, LRP2 CR89 V1047D (human, UniProt P98164 1022-1105); assay: as above
T4 construct: also called YDWR
T4 sequence: T3 sequence with D68R
Experimental: as §1, §2

LRP2 CR89 Y1042W R1088D = target: T5, LRP2 CR89 Y1042W R1088D (human, UniProt P98164 1022-1105); assay: as above
T5 construct: also called WVWD
T5 chain: T3 sequence with Y22W, D27V
Experimental: as §1, §2

LRP2 CR89 Y1042W V1047D = target: T6, LRP2 CR89 Y1042W V1047D (human, UniProt P98164 1022-1105); assay: as above
T6 construct: also called WDWR
T6 chain: T3 sequence with Y22W, D68R
Experimental: as §1, §2

[1] = target: T7, LRP2 CR89 Y1042W V1047D R1088D (human, UniProt P98164 1022-1105); assay: as above
T7 construct: also called WDWD
T7 chain: T3 sequence with Y22W
Experimental: as §1, §2

LRP2 CR3031 = target: T8, LRP2 CR3031 (human, UniProt P98164 3677-3755); assay: solid-phase assay on coated CR protein, each ligand at 80 nM, blank-corrected absorbance
T8 construct: domain: CR3031; Its cloning is not described in the methods; not shown: N-terminal hexahistidine and S-peptide tags of pET30(+)a

MAT CR12 = target: T9, MAT CR12 (human, UniProt Q9Y5Y6 452-524); assay: as above
T9 construct: also called ST14 CR12; matriptase CR12
T9 sequence: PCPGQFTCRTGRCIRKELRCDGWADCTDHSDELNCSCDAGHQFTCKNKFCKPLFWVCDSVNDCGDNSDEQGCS

T8 sequence (P98164 3677-3755): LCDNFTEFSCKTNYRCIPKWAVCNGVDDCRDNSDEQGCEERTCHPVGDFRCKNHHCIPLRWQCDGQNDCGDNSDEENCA
T1 sequence (P98164 1025-1102): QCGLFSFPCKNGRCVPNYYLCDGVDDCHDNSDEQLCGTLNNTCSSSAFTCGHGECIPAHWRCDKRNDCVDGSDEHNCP

B1: MegaRAP1 d3 (ligand)
chain: LDRLRRVSHQGYTTEAKFEEPRVIDLWDLAQSANLTDKELEAFREELKYFKAKIEAHNHYQKQLEIAHEELRHAESVGDGERVSRSREKHALLEGRTKELGYTVKKHLQDLSGRISRAR
notes: V175L lies outside the d3 construct; also called RAPv2A d3; RAP v2 d3; not shown: N-terminal hexahistidine and S-peptide tags of pET30(+)a
LRP2 CR89
  Kd: 0.038 µM
LRP2 CR89 R1088D
  fold loss of affinity relative to LRP2 CR89: ~2 fold
LRP2 CR89 V1047D R1088D
  binding result: no binding (tested: 100 nM)
LRP2 CR89 V1047D
  binding result: no binding (tested: 100 nM)
LRP2 CR89 Y1042W R1088D
  binding result: no binding (tested: 100 nM)
LRP2 CR89 Y1042W V1047D
  binding result: no binding (tested: 100 nM)
[1]
  binding result: no binding (tested: 100 nM)
LRP2 CR3031
  binding result: no binding (tested: 80 nM)
MAT CR12
  binding result: no binding (tested: 80 nM)
